The results in this text go back to patent US20170313746A1 (published 2017).

Non-standard residues stand in square brackets, D forms with d. Phe(4-guanidino) = N=C(N)Nc1ccc(C[C@H](N)C(=O)O)cc1

The test addresses lactate dehydrogenase (LDH) in lysates of NCI-H460 cells (human, UniProt P00338 2-332). The experiment in a line: cell-based or functional assay.

Consider PRGPRPVWWRRWWRRWW (head-to-tail cyclic peptide) [HILR-025 (cyclo-[Pro-Arg-Gly-Pro-Arg-Pro-Val-Trp-Trp-Arg-Arg-Trp-Trp-Arg-Arg-Trp-Trp])], for which the “IC50 of LDH activity (LDH activity kit on lysates of treated NCI-H460 cells)” value stood at 16 µM.

B1: HILR-030 (cyclo-[Pro-Arg-Gly-Pro-Arg-Pro-Val-Trp-Trp-Gpa-Gpa-Trp-Trp-Gpa-Gpa-Trp-Trp]) (peptide)
peptide: cyclo(PRGPRPVWW[Phe(4-guanidino)][Phe(4-guanidino)]WW[Phe(4-guanidino)][Phe(4-guanidino)]WW)
SMILES: CC(C)[C@@H]1NC(=O)[C@@H]2CCCN2C(=O)[C@H](CCCNC(=N)N)NC(=O)[C@@H]2CCCN2C(=O)CNC(=O)[C@H](CCCNC(=N)N)NC(=O)[C@@H]2CCCN2C(=O)[C@H](Cc2c[nH]c3ccccc23)NC(=O)[C@H](Cc2c[nH]c3ccccc23)NC(=O)[C@H](Cc2ccc(NC(=N)N)cc2)NC(=O)[C@H](Cc2ccc(NC(=N)N)cc2)NC(=O)[C@H](Cc2c[nH]c3ccccc23)NC(=O)[C@H](Cc2c[nH]c3ccccc23)NC(=O)[C@H](Cc2ccc(NC(=N)N)cc2)NC(=O)[C@H](Cc2ccc(NC(=N)N)cc2)NC(=O)[C@H](Cc2c[nH]c3ccccc23)NC(=O)[C@H](Cc2c[nH]c3ccccc23)NC1=O
Take B1: the “IC50 of LDH activity (LDH activity kit on lysates of treated NCI-H460 cells)” value was found to be 22 µM.
